From patent publication US20210340207A1 (Merck Sharp & Dohme, published 2021)
*1 amine or outer side, *2 acyl side, *3 side chain or, on linkers, in order; H or OH if unused. Side-chain parts run from the residue outwards. [ ]: non-standard residue; d: D form. pAMF = para-azidomethylphenylalanine, [N-]=[N+]=NCc1ccc(C[C@H](N[*:1])C(=O)[*:2])cc1

Legend:
[1] = target: T1, human IL-2Rβγc (on DERL-7 cells, U2OS IL2RB/IL2RG cells, CD25 knockout Kit225-STAT5 cells, primary CD8+ CTLs) (human, UniProt P14784 27-551; P31785 23-369); assay: cell-based or functional assay
T1 sequence (looked up) 1: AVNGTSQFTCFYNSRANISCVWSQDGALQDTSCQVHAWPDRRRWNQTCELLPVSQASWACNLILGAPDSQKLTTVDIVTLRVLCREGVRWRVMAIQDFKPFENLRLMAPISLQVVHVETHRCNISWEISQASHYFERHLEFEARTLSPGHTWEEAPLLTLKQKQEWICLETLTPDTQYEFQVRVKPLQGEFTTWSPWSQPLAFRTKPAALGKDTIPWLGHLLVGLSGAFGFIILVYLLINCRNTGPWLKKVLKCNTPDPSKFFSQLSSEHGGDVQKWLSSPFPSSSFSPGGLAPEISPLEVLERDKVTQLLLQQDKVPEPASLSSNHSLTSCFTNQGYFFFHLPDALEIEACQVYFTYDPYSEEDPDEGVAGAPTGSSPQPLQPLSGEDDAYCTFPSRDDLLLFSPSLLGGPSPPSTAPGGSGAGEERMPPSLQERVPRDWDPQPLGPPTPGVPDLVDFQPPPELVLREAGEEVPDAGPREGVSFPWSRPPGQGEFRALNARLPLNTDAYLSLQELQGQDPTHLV
T1 sequence (looked up) 2: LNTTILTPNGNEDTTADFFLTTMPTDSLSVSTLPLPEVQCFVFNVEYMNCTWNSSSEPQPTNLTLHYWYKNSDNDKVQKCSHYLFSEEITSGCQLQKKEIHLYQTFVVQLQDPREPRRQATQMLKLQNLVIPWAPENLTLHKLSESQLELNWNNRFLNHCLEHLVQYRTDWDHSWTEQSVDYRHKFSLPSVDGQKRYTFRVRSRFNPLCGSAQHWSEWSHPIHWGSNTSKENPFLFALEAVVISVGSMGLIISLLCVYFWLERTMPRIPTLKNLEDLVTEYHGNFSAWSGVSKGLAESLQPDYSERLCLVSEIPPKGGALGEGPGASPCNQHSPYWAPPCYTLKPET

[2] = target: T2, Cynomolgus/Rhesus IL-2Rβ, His tag (Table 10) (cynomolgus monkey / rhesus monkey, UniProt Q38J85 27-240); assay: SPR (Biacore T200)
T2 sequence: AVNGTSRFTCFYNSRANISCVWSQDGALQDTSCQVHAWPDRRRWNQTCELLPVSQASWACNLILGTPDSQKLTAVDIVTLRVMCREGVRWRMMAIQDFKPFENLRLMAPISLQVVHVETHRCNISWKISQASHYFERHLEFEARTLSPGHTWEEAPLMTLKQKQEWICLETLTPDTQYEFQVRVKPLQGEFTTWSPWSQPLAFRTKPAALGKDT
Protocol: (§1) A Surface Plasmon Resonance (SPR) assay on a Biacore T200 (GE Healthcare) instrument was used to determine the monovalent affinities of pegylated aldesleukin variants against polyhistidine-tagged or Fc-tagged IL-2 Receptors. Biacore T200 Evaluation Software was used to fit each titration series to a 1:1 binding model or steady state affinity. The association (kₒₙ, M⁻¹ s⁻¹) and dissociation (koff, s⁻¹) rate constants were determined for each set of titrations and used to calculate the dissociation constant, KD=koff/kₒₙ, of each sample against each receptor. koff/kₒₙ values are not reported herein.

[3] = target: T3, Human IL-2Rβ, His tag (Table 10) (human, UniProt P14784 27-239, limits assumed); assay: SPR (Biacore T200)
T3 construct: not shown: polyhistidine tag
T3 sequence (looked up): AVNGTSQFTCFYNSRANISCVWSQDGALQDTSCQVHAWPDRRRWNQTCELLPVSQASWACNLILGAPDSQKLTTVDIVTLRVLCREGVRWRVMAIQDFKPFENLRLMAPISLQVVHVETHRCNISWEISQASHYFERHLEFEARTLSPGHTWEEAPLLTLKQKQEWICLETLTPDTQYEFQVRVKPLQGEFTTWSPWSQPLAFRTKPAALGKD
Protocol: as §1

[4] = target: T2, Cynomolgus/Rhesus IL-2Rβ, His tag …; assay: SPR (Biacore T200), receptor captured on anti-histidine surface
Protocol: as §1
(§2) To measure the affinity of CON1 and aldesleukin for IL-2R subunits, receptors were captured on either an anti-histidine or anti-hu Fc antibody surface. […] CON1 has a six-fold lower affinity for Human and Cynomolgus/Rhesus IL-2-Rβ than aldesleukin.

[5] = target: T3, Human IL-2Rβ, His tag (Table 10); assay: as above
Protocol: as §1, §2

CD25 knockout Kit225-STAT5 reporter, fold lower activity than aldesleukin [1]: 24 fold
fold lower affinity than aldesleukin [2]: 6 fold
fold lower affinity than aldesleukin [3]: 6 fold
KD/KD (human) [4]: 1.2 ratio
Kd [4]: 5.4 µM
KD/KD (human) [5]: 1 ratio
Kd [5]: 4.4 µM
B1: Ald_S4pAMF(PEG1)/R37A/F41K (CON1) (ligand)
chain: PTS[pAMF]([DBCO‑triazole-mPEG 30 kDa])STKKTQLQLEHLLLDLQMILNGINNYKNPKLTAMLTKKFYMPKKATELKHLQCLEEELKPLEEVLNLAQSKNFHLRPRDLISNINVIVLELKGSETTFMCEYADETATIVEFLNRWITFSQSIISTLT
modifications: not fully specified (bridges)
notes: also called Des-A1_IL-2_S4pAMF(PEG1)/R37A/F41K/C124S
